Biological target: the molecule itself
Assay: crystal structure; DNTTIP1 (56–147), hanging drops at 22°C, 100 mM sodium acetate pH 4.6, 14% propan-2-ol; MAD phasing with SeMet protein; P212121

B1: Human DNTTIP1 (56–147) (domain or fragment, UniProt Q9H147 56-147, looked up)
chain: MTTSFTDPAISMDLLRAVLQPSINEEIQTVFNKYMKFFQKAALNVRDNVGEEVDAEQLIQEACRSCLEQAKLLFSDGEKVIPRLTHELPGIK
notes: DNTTIP1, human, residues 56-147; Native and selenomethionine substituted protein were both crystallized; six molecules (three dimers) in the asymmetric unit; also called DD; N-terminal dimerization domain; source: E. coli Rosetta-pLysS or B834(DE3), purified (Ni-NTA, Resource Q, Superdex S75)
For B1, the “stoichiometry N” value was 2.
